In PMC10663520, “Qa-SNARE syntaxin 18 mediates lipid droplet fusion with SNAP23 and SEC22B” (Cell Discovery, 2023):

T1: GST-Flag-STX18 (full-length) (UniProt Q9P2W9 1-335)
T1 construct: syntaxin 18 (STX18), full length, in pGEX-4T-1 with GST-TEV-3xFLAG at the N-terminus; C-terminus printed as 331-DWYDS-335; The methods describe only the TEV-cleaved preparation; also called GST-STX18; GST-Flag-tagged STX18; source: E. coli BL21 (C43), purified (Glutathione Sepharose 4B); not shown: GST, N-terminal, kept; 3xFLAG, N-terminal, kept
T1 sequence (looked up): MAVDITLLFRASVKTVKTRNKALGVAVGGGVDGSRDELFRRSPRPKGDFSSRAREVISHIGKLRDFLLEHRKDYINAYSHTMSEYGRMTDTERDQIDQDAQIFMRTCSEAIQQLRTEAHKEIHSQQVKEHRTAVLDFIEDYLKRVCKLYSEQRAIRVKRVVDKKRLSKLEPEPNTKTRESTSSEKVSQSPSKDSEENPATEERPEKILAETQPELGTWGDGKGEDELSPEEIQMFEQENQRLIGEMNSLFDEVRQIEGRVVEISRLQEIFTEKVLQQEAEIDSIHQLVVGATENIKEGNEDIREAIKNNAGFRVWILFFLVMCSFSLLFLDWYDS

B1: SNAP23 (full-length, purified) (natural protein, UniProt O00161 1-211, looked up)
chain: MDNLSSEEIQQRAHQITDESLESTRRILGLAIESQDAGIKTITMLDEQKEQLNRIEEGLDQINKDMRETEKTLTELNKCCGLCVCPCNRTKNFESGKAYKTTWGDGGENSPCNVVSKQPGPVTNGQLQQPTTGAASGGYIKRITNDAREDEMEENLTQVGSILGNLKDMALNIGNEIDAQNPQIKRITDKADTNRDRIDIANARAKKLIDS
notes: SNAP23, full length, in pGEX with N-terminal GST and a TEV site after it; The uncleaved form is called GST-Flag-SNAP23 in the pull-down methods; if a FLAG follows the TEV site it would remain here; also called purified SNAP23; source: E. coli BL21 (DE3), purified (Glutathione Sepharose 4B, TEV on beads); not shown: GST, N-terminal, cleaved
B2: SEC22B (full-length, purified) (natural protein, UniProt O75396 1-215, looked up)
chain: MVLLTMIARVADGLPLAASMQEDEQSGRDLQQYQSQAKQLFRKLNEQSPTRCTLEAGAMTFHYIIEQGVCYLVLCEAAFPKKLAFAYLEDLHSEFDEQHGKKVPTVSRPYSFIEFDTFIQKTKKLYIDSRARRNLGSINTELQDVQRIMVANIEEVLQRGEALSALDSKANNLSSLSKKYRQDAKYLNMRSTYAKLAAVAVFFIMLIVYVRFWWL
notes: SEC22B, full length, in pGEX with N-terminal GST and a TEV site after it; C-terminus printed as 212-FWWL-215; The uncleaved form is called GST-Flag-SEC22B in the pull-down methods; if a FLAG follows the TEV site it would remain here; also called purified SEC22B; source: E. coli BL21 (C43), purified (Glutathione Sepharose 4B, TEV on beads); not shown: GST, N-terminal, cleaved

Columns and labels:
Settings in all cases: both partners purified
[1] = target: B1; experiment: SEC; individually purified SNAP23, STX18-SNARE and SEC22B-SNARE, alone or as an in vitro incubated mixture of the three, on Superdex75 10/300 GL; SDS-PAGE of fractions
[2] = target: T1, GST-Flag-STX18 (full-length); experiment: pull-down; GST-Flag-tagged bait on GST agarose beads, 4 °C 1 h; 20 mM HEPES pH 7.4, 300 mM NaCl, 1 mM EDTA, 1% OG, 0.1% FOS-Choline-12; purified SEC22B (54.7 μM, 20 μL) or SNAP23 (280 μM, 5 μL) added; immunoblot and Coomassie
[3] = target: B2; experiment: as above

Row | Binder | binding result [1] | binding result [2] | also measured
1 | STX18-SNARE (243-305), individually purified (domain or fragment, UniProt Q9P2W9 243-305, looked up, syntaxin 18 (STX18), SNARE domain, residues 243-305, in pGEX-4T-1 with GST-TEV-FLAG at the N-terminus; The TEV site lies between GST and FLAG, so the FLAG tag should remain after cleavage (surmised); source: E. coli BL21 (DE3), purified (Glutathione Sepharose 4B, TEV on beads, Superdex 75); not shown: GST, N-terminal, cleaved) IGEMNSLFDEVRQIEGRVVEISRLQEIFTEKVLQQEAEIDSIHQLVVGATENIKEGNEDIREA | binds |  | 
2 | B1 |  | binds | 
3 | GST-Flag-SNAP23 (natural protein, UniProt O00161 1-211, looked up, SNAP23, full length, in pGEX with N-terminal GST and a TEV site after it; The cloning paragraph names no FLAG tag for this construct; the pull-down methods and legends call it GST-Flag-SNAP23; also called GST-SNAP23; GST-Flag-tagged SNAP23; source: E. coli BL21 (DE3), purified (Glutathione Sepharose 4B); not shown: GST, N-terminal, kept) MDNLSSEEIQQRAHQITDESLESTRRILGLAIESQDAGIKTITMLDEQKEQLNRIEEGLDQINKDMRETEKTLTELNKCCGLCVCPCNRTKNFESGKAYKTTWGDGGENSPCNVVSKQPGPVTNGQLQQPTTGAASGGYIKRITNDAREDEMEENLTQVGSILGNLKDMALNIGNEIDAQNPQIKRITDKADTNRDRIDIANARAKKLIDS |  |  | binding result [3]: binds
4 | SEC22B-SNARE (134-194), individually purified (domain or fragment, UniProt O75396 134-194, looked up, SEC22B, SNARE domain, residues 134-194, in pET28 with 6xHis at the N-terminus) NLGSINTELQDVQRIMVANIEEVLQRGEALSALDSKANNLSSLSKKYRQDAKYLNMRSTYA | binds |  | 
5 | B2 |  | binds | 
